Target: the molecule itself
Assay: crystal structure

B1: SrpA sialoglycan binding region (SrpABR), tag cleaved, as crystallised (domain or fragment)
chain: RRATDTTPPTITVPSDIIAYRGEEFEFYFEITDDSGQVKNIELSTFGKPLGLNWLEYSEDNFNVPGNATSDNPLRVRVHGTVPLNEPIPADKNRAQFTRTIRAWDAAGNVSSNITFVIKYRAQTDKYNPADPTITYVDRLSSLSPSEKNAVEAAVRAANPQIPAAARITVSANGTVTITYPDSSTDTITANRVVKDLASSR
With B1 the “stoichiometry N” value was 2.
